One protein from article PMC6176637 (Proceedings of the National Academy of Sciences of the …, 2018) can be followed below.

This data set concerns the molecule itself. As to the kind of experiment: cryo-EM structure.

B1: full-length hemagglutinin (HA) from A/duck/Alberta/35/76(H1N1) virus (natural protein)
chain 1: not shown
chain 2: not shown
On to B1, for which the “stoichiometry N” value came to 3.

Usually stoichiometry N stands for a count of units in the complex or per binding partner.
